For this experiment, the target named is T1, Bovine Serum Albumin (BSA) (bovine, UniProt P02769 25-607).
T1 construct: Negative control
In words: proteins spotted on nitrocellulose filters, incubated with radiolabeled chemokine.

T1 sequence (P02769 25-607 limits assumed): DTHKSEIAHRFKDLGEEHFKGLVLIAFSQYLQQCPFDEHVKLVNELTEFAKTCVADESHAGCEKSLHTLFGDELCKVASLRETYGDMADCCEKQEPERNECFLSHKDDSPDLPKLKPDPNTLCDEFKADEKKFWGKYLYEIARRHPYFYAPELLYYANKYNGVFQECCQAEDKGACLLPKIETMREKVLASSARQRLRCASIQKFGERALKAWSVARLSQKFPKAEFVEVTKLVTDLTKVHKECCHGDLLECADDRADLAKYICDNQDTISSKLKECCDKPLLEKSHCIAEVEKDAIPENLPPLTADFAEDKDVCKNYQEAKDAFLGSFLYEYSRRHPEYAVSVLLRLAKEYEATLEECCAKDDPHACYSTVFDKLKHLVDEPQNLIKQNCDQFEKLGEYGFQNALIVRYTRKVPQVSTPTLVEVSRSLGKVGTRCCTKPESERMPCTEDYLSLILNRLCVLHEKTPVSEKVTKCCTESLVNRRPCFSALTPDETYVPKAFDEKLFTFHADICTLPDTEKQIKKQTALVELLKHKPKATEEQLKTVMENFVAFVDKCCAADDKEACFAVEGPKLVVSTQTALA

B1: CCL5/RANTES (ligand, UniProt P13501 24-91, looked up)
chain: SPYSSDTTPCCFAYIARPLPRAHIKEYFYTSGKCSNPAVVFVTRKNRQVCANPEKKWVREYINSLEMS
In the case of B1, the binding result is “no binding”.

B2: CCL3/MIP-1alpha (ligand, UniProt P10147 24-92, looked up)
chain: SLAADTPTACCFSYTSRQIPQNFIADYFETSSQCSKPGVIFLTKRSRQVCADPSEEWVQKYVSDLELSA
notes: also called CCL/MIP-1alpha; 125I-MIP-1alpha
In the case of B2, the binding result was “no binding”.

Source of the values: patent US20070224125A1 (APPLIED RESEARCH SYSTEMS ARS HOLDING N V, published 2007).
